Laboratory results from US20180273587A1 (AILERON THERAPEUTICS, published 2018).
Starred links: 1 amine or outer side, 2 acyl side, 3 side chain; linkers in the order of their positions; H or OH if unused. Positions of bridges follow the written chain, without caps; N, C: chain ends. Non-standard residues stand in square brackets, D forms with d. St = two pentenyl-alanine olefin side chains, each crosslinked to another residue (stitch), C=CCCCC(CCCC=C)(N[*:1])C(=O)[*:2]; R8 = C=CCCCCCC[C@@](C)(N)C(=O)O; R5 = C=CCCC[C@@](C)(N)C(=O)O; S5 = C=CCCC[C@](C)(N)C(=O)O

How the values were obtained:
BCL-2 [1] = molecular target: T1, BCL-2 (UniProt P10415 1-217, limits assumed); assay: Ki (Table 6); method not stated
T1 construct: Target of the Ki columns
T1 sequence (P10415 1-217 limits assumed): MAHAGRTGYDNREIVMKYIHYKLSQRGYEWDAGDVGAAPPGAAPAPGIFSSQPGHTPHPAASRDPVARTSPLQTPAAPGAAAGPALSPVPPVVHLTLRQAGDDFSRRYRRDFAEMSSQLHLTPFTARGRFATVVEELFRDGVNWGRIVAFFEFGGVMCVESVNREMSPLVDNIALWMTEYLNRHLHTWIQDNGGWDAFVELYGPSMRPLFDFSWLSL

BCL-XL [2] = molecular target: T2, BCL-XL (UniProt Q07817 1-209); assay: Ki (Table 6); method not stated
T2 construct: Target of the Ki columns
T2 sequence (Q07817 1-209): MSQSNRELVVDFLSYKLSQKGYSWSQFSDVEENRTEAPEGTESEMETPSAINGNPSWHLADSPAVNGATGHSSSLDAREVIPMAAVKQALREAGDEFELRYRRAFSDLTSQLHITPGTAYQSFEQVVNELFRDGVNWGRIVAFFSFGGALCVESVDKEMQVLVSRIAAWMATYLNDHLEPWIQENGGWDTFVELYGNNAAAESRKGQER

MCL-1 [3] = molecular target: T3, MCL-1 (UniProt Q07820 172-327, limits assumed); assay: Ki; method not stated; unit not printed (nM per Table 6)
T3 construct: Target of the Ki columns; also called Myeloid cell leukemia 1
T3 sequence (Q07820 172-327 limits assumed): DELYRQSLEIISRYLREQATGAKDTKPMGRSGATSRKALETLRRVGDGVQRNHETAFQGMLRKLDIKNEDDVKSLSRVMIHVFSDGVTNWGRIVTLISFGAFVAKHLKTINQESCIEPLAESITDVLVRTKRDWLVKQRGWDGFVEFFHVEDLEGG

BCL-2 [4] = molecular target: T1, BCL-2; assay: as above
BCL-XL [5] = molecular target: T2, BCL-XL; assay: as above
MCL-1 [6] = molecular target: T3, MCL-1; assay: Ki (Table 6); method not stated

B1: Cross-linked peptide #6 (peptide)
peptide: IWIAQALXAIGDQFNAYYA
modifications: not fully specified; N-terminal Ac; Cit at residue 8 (column 153); $r8 at residue 9 (column 154) and $ at residue 16 (column 161), crosslinked; C-terminal NH2
Ki (BCL-2 [1]): 88.2 nM
Ki (BCL-XL [2]): 28.8 nM

Ac-IWIAQALR[R8]IGDEFN[St]YYA[R5]A-NH2 (staple 16-20, 9-16) [SEQ ID NO: 1784]
Ki (MCL-1 [3]): 11.6 nM
Ki (BCL-2 [4]): 57.7 nM
Ki (BCL-XL [5]): 24.2 nM

B2: SEQ ID NO: 1763 (peptide)
peptide: Ac-IWIAAALR[R8]IGDAFN[S5]YYS-NH2
modifications: staple 9-16
SMILES: CC[C@H](C)[C@H](NC(C)=O)C(=O)N[C@@H](Cc1c[nH]c2ccccc12)C(=O)N[C@H](C(=O)N[C@@H](C)C(=O)N[C@@H](C)C(=O)N[C@@H](C)C(=O)N[C@@H](CC(C)C)C(=O)N[C@@H](CCCNC(=N)N)C(=O)N[C@]1(C)CCCCCCC=CCCC[C@@](C)(C(=O)N[C@@H](Cc2ccc(O)cc2)C(=O)N[C@@H](Cc2ccc(O)cc2)C(=O)N[C@@H](CO)C(N)=O)NC(=O)[C@H](CC(N)=O)NC(=O)[C@H](Cc2ccccc2)NC(=O)[C@H](C)NC(=O)[C@H](CC(=O)O)NC(=O)CNC(=O)[C@H]([C@@H](C)CC)NC1=O)[C@@H](C)CC
Ki (MCL-1 [3]): 4.7 nM
Ki (BCL-2 [4]): 62.4 nM
Ki (BCL-XL [5]): 36 nM

B3: SEQ ID NO: 1765 (peptide)
peptide: Ac-IWIAAALR[R8]IGDAFN[S5]YYR-NH2
modifications: staple 9-16
SMILES: CC[C@H](C)[C@H](NC(C)=O)C(=O)N[C@@H](Cc1c[nH]c2ccccc12)C(=O)N[C@H](C(=O)N[C@@H](C)C(=O)N[C@@H](C)C(=O)N[C@@H](C)C(=O)N[C@@H](CC(C)C)C(=O)N[C@@H](CCCNC(=N)N)C(=O)N[C@]1(C)CCCCCCC=CCCC[C@@](C)(C(=O)N[C@@H](Cc2ccc(O)cc2)C(=O)N[C@@H](Cc2ccc(O)cc2)C(=O)N[C@@H](CCCNC(=N)N)C(N)=O)NC(=O)[C@H](CC(N)=O)NC(=O)[C@H](Cc2ccccc2)NC(=O)[C@H](C)NC(=O)[C@H](CC(=O)O)NC(=O)CNC(=O)[C@H]([C@@H](C)CC)NC1=O)[C@@H](C)CC
Ki (MCL-1 [3]): 18.5 nM
Ki (BCL-2 [4]): 142 nM
Ki (BCL-XL [5]): 186 nM

B4: SEQ ID NO: 1766 (peptide)
peptide: Ac-IWIAAALR[R8]IGDAFN[S5]YYK-NH2
modifications: staple 9-16
SMILES: CC[C@H](C)[C@H](NC(C)=O)C(=O)N[C@@H](Cc1c[nH]c2ccccc12)C(=O)N[C@H](C(=O)N[C@@H](C)C(=O)N[C@@H](C)C(=O)N[C@@H](C)C(=O)N[C@@H](CC(C)C)C(=O)N[C@@H](CCCNC(=N)N)C(=O)N[C@]1(C)CCCCCCC=CCCC[C@@](C)(C(=O)N[C@@H](Cc2ccc(O)cc2)C(=O)N[C@@H](Cc2ccc(O)cc2)C(=O)N[C@@H](CCCCN)C(N)=O)NC(=O)[C@H](CC(N)=O)NC(=O)[C@H](Cc2ccccc2)NC(=O)[C@H](C)NC(=O)[C@H](CC(=O)O)NC(=O)CNC(=O)[C@H]([C@@H](C)CC)NC1=O)[C@@H](C)CC
Ki (MCL-1 [3]): 6.6 nM
Ki (BCL-2 [4]): 43.4 nM
Ki (BCL-XL [5]): 66.3 nM

B5: SEQ ID NO: 1764 (peptide)
peptide: Ac-IWIAAALR[R8]IGDAFN[S5]YYH-NH2
modifications: staple 9-16
SMILES: CC[C@H](C)[C@H](NC(C)=O)C(=O)N[C@@H](Cc1c[nH]c2ccccc12)C(=O)N[C@H](C(=O)N[C@@H](C)C(=O)N[C@@H](C)C(=O)N[C@@H](C)C(=O)N[C@@H](CC(C)C)C(=O)N[C@@H](CCCNC(=N)N)C(=O)N[C@]1(C)CCCCCCC=CCCC[C@@](C)(C(=O)N[C@@H](Cc2ccc(O)cc2)C(=O)N[C@@H](Cc2ccc(O)cc2)C(=O)N[C@@H](Cc2c[nH]cn2)C(N)=O)NC(=O)[C@H](CC(N)=O)NC(=O)[C@H](Cc2ccccc2)NC(=O)[C@H](C)NC(=O)[C@H](CC(=O)O)NC(=O)CNC(=O)[C@H]([C@@H](C)CC)NC1=O)[C@@H](C)CC
Ki (MCL-1 [3]): 10.6 nM
Ki (BCL-2 [4]): 98.8 nM
Ki (BCL-XL [5]): 73.8 nM

B6: Cross-linked peptide #1 (peptide)
peptide: Ac-IWIAQALR[R8]IGDEFN[S5]YYA-NH2
modifications: staple 9-16
SMILES: CC[C@H](C)[C@H](NC(C)=O)C(=O)N[C@@H](Cc1c[nH]c2ccccc12)C(=O)N[C@H](C(=O)N[C@@H](C)C(=O)N[C@@H](CCC(N)=O)C(=O)N[C@@H](C)C(=O)N[C@@H](CC(C)C)C(=O)N[C@@H](CCCNC(=N)N)C(=O)N[C@]1(C)CCCCCCC=CCCC[C@@](C)(C(=O)N[C@@H](Cc2ccc(O)cc2)C(=O)N[C@@H](Cc2ccc(O)cc2)C(=O)N[C@@H](C)C(N)=O)NC(=O)[C@H](CC(N)=O)NC(=O)[C@H](Cc2ccccc2)NC(=O)[C@H](CCC(=O)O)NC(=O)[C@H](CC(=O)O)NC(=O)CNC(=O)[C@H]([C@@H](C)CC)NC1=O)[C@@H](C)CC
Ki (MCL-1 [6]): 1.8 nM
Ki (BCL-2 [1]): 3.2 nM
Ki (BCL-XL [2]): 1.4 nM

B7: Cross-linked peptide #2 (peptide)
peptide: Ac-IWIAQALR[R8]IGDQFN[S5]YYA-NH2
modifications: staple 9-16
SMILES: CC[C@H](C)[C@H](NC(C)=O)C(=O)N[C@@H](Cc1c[nH]c2ccccc12)C(=O)N[C@H](C(=O)N[C@@H](C)C(=O)N[C@@H](CCC(N)=O)C(=O)N[C@@H](C)C(=O)N[C@@H](CC(C)C)C(=O)N[C@@H](CCCNC(=N)N)C(=O)N[C@]1(C)CCCCCCC=CCCC[C@@](C)(C(=O)N[C@@H](Cc2ccc(O)cc2)C(=O)N[C@@H](Cc2ccc(O)cc2)C(=O)N[C@@H](C)C(N)=O)NC(=O)[C@H](CC(N)=O)NC(=O)[C@H](Cc2ccccc2)NC(=O)[C@H](CCC(N)=O)NC(=O)[C@H](CC(=O)O)NC(=O)CNC(=O)[C@H]([C@@H](C)CC)NC1=O)[C@@H](C)CC
Ki (MCL-1 [6]): 5.2 nM
Ki (BCL-2 [1]): 67 nM
Ki (BCL-XL [2]): 12 nM

B8: Cross-linked peptide #3 (peptide)
peptide: Ac-IWIAAALR[R8]IGDEFN[S5]YYA-NH2
modifications: staple 9-16
SMILES: CC[C@H](C)[C@H](NC(C)=O)C(=O)N[C@@H](Cc1c[nH]c2ccccc12)C(=O)N[C@H](C(=O)N[C@@H](C)C(=O)N[C@@H](C)C(=O)N[C@@H](C)C(=O)N[C@@H](CC(C)C)C(=O)N[C@@H](CCCNC(=N)N)C(=O)N[C@]1(C)CCCCCCC=CCCC[C@@](C)(C(=O)N[C@@H](Cc2ccc(O)cc2)C(=O)N[C@@H](Cc2ccc(O)cc2)C(=O)N[C@@H](C)C(N)=O)NC(=O)[C@H](CC(N)=O)NC(=O)[C@H](Cc2ccccc2)NC(=O)[C@H](CCC(=O)O)NC(=O)[C@H](CC(=O)O)NC(=O)CNC(=O)[C@H]([C@@H](C)CC)NC1=O)[C@@H](C)CC
Ki (MCL-1 [6]): 1 nM
Ki (BCL-2 [1]): 6 nM
Ki (BCL-XL [2]): 1 nM

B9: Cross-linked peptide #4 (peptide)
peptide: Ac-IWIAAALR[R8]IGDQFN[S5]YYA-NH2
modifications: staple 9-16
SMILES: CC[C@H](C)[C@H](NC(C)=O)C(=O)N[C@@H](Cc1c[nH]c2ccccc12)C(=O)N[C@H](C(=O)N[C@@H](C)C(=O)N[C@@H](C)C(=O)N[C@@H](C)C(=O)N[C@@H](CC(C)C)C(=O)N[C@@H](CCCNC(=N)N)C(=O)N[C@]1(C)CCCCCCC=CCCC[C@@](C)(C(=O)N[C@@H](Cc2ccc(O)cc2)C(=O)N[C@@H](Cc2ccc(O)cc2)C(=O)N[C@@H](C)C(N)=O)NC(=O)[C@H](CC(N)=O)NC(=O)[C@H](Cc2ccccc2)NC(=O)[C@H](CCC(N)=O)NC(=O)[C@H](CC(=O)O)NC(=O)CNC(=O)[C@H]([C@@H](C)CC)NC1=O)[C@@H](C)CC
Ki (MCL-1 [6]): 6 nM
Ki (BCL-2 [1]): 22 nM
Ki (BCL-XL [2]): 4 nM
